These results are taken from article PMC5913127 (Scientific Reports, 2018).

Data set [1] deals with Aβ (Monomer, Aggregate). Conditions: A = aggregate, M = monomer; ref [9]–[19],[54] as given per antibody in column Ref. of Table 1; cited from earlier work.
The target in data set [2] is Aβ1-40. In words: ELISA, binding of Fab fragments to biotinylated Aβ1-40 on streptavidin-coated plates. Conditions: papain-generated Fab fragments, Aβ1-40-Lys-Biotin 1 μg/mL on streptavidin plates, average of two measurements. In general terms: ELISA stands for enzyme-linked immunosorbent assay.
Protocol: For binding studies with Fab fragments, biotin-conjugated Aβ1-40 (Aβ1-40-Lys-Biotin; AnaSpec) was captured on streptavidin-coated plates (Thermo Fisher Scientific) by incubating 50 μL/well of the peptide at a concentration of 1 μg/mL in Assay Buffer (PBS containing 1% bovine serum albumin (BSA)) for 1 h at room temperature. Plates were washed with Wash Buffer (PBS containing 0.05% Tween-20) and blocked for 1 h at room temperature with Blocking Buffer (PBS containing 1% BSA). Antibodies or Fabs were serially diluted to the indicated concentrations in Assay Buffer, and 50 μL/well were added to plates in duplicate wells and incubated for 2 h at room temperature. Plates were washed three times with Wash Buffer, and bound antibodies or Fabs were detected using a horseradish peroxidase (HRP)-conjugated goat anti-mouse polyclonal secondary antibody (Jackson ImmunoResearch), followed by measurement of captured HRP by incubation with 1-Step TMB substrate (Thermo Fisher Scientific) following the manufacturer’s instructions.
In data set [3] the target is fibrillar Aβ1-42. In words: ELISA, binding of antibodies to immobilized Aβ1-42 fibrils. Conditions: mIgG2a chimeric antibodies on fibrillar Aβ1-42 coated at 2.5 μg/mL, 2 h room temperature, average of two measurements, read-out: mAb binding aggregated Aβ1-42 (EC50).
The target in data set [4] is Aβ1-40 monomer. In words: ELISA-based competition assay: antibody binding to immobilized oligomeric Aβ1-42 competed by free monomeric Aβ1-40. Conditions: immobilized oligomeric Aβ1-42 2.5 μg/mL, antibody 0.4 nM, 2 h room temperature, mean of duplicate wells. How it is done: Finally, we determined the binding of Fab fragments of the antibodies to Aβ1-40 (Fig. 1d).
To measure competition by soluble monomeric Aβ1-40, plates were coated with Aβ1-42 peptide at 2.5 μg/mL as above. In this case the oligomeric preparation of […] was used as the substrate to ensure sufficient signal with each test antibody. […] The plates were incubated at room temperature for 2 h, and bound antibody was detected with an HRP-conjugated goat anti-mouse polyclonal secondary antibody followed by measurement of HRP activity using 1-Step TMB substrate as described above. All data points are the mean of duplicate wells.

The test system of data set [5] is monomeric Aβ1-40-biotin. The data set can be described thus: SPR, Fab fragments binding to surface-captured Aβ1-40-biotin. As to conditions: SPR Biacore T200. How it is done: Figure 2 Surface plasmon resonance analysis of the binding of anti-Aβ antibody Fab fragments to Aβ1-40-biotin immobilized on a biotin-capture sensor chip surface. […] Fabs were injected over an Aβ1-40-biotin coated sensor chip for 2 min in (a) and 3 min in (b–d), where the rising response describes the approach to steady state binding and beyond which the response drops due to dissociation of the Fabs.
Binding kinetics and affinity measurements were performed with a Biacore T200 instrument (GE Healthcare). Aβ1-40-biotin was captured on a Biotin CAPture chip (GE Healthcare) at 3–7 pg/mm^2 from solutions at 10–20 ng/mL in Biacore buffer (10 mM HEPES, pH 7.2, 150 mM NaCl, 3.4 mM EDTA, 0.05% BSA, 0.005% surfactant P20) using reagents and protocols provided by the manufacturer. […] Antibody Fab fragments were injected for 2-3 min at 30 μL/min and a range of concentrations in Biacore buffer, as indicated in the Fig. 2 legend, and the binding response relative to a reference sensor with no Aβ1-40-biotin was recorded. Data were analyzed with Biacore T200 Evaluation Software v3.0 using a 1:1 binding model.

Data set [6] deals with Aβ1-16 peptide. In words: Microscale thermophoresis (MST). Type of data set: binding. As to conditions: MST in solution; 5-TAMRA-labeled Aβ1-16; PBS, Triton X-100; average of three replicates. For orientation: In MST a laser heats a spot of the sample, and binding alters the fluorescence response.
Data set [7] concerns dimeric Aβ1-15 MAP. The data set can be described thus: ELISA with multi-antigen peptides, dimer. The class given is binding. As to conditions: result in words. As for the experimental part: (§1) Aβ peptide binding to anti-Aβ antibodies measured by isothermal titration calorimetry (ITC). Titration of mAb with Aβ1-28 peptide. […]
(§2) mAb:Aβ ratio. The solid line is the fit to a two-site binding model (2 Aβ peptides binding to 1 mAb). The average KD values were calculated from […]
(§3) ELISA of binding of anti-Aβ antibodies to bivalent and tetravalent multi-antigen peptides Biotinylated Aβ1-15 multivalent multi-antigen peptides (MAPs) based on branched lysine residues were custom synthesized and purified (LifeTein). […]
(§4) goat anti-mouse IgG Fcγ fragment-specific antibody (Jackson ImmunoResearch) in Coating Buffer. The coated plates were washed, blocked as described in Methods, and incubated with serial dilutions of dimeric or tetrameric biotinylated Aβ1-15 MAP in Blocking Buffer at the indicated concent rations in […]
(§5) (1 picture or pasted object on this page, not shown here)
(§6) Figure S5. Binding of anti-Aβ antibodies to dimeric and tetrameric Aβ as assessed by ELISA. (a) Design of biotin-conjugated Aβ1-15 multivalent multi-antigen peptides (MAPs). Binding of anti-Aβ antibodies to MAPs with Aβ1-15x2 dimer (b) and Aβ1-15x4 tetramer (c).

Data set [8] concerns tetrameric Aβ1-15 MAP. In words: ELISA with multi-antigen peptides, tetramer. The class given is binding. Conditions: result in words. As for the experimental part:
as §1, §2, §3, §4, §5, §6

Data set [9] concerns Aβ1-40 fibrils. The data set can be described thus: Negative-stain EM of fibrils with gold-conjugated antibodies. The class given is binding. As to conditions: fibril-associated 10-nm gold particles (≤10 nm to fibril) per μm^2; 100 images; ^chaducanumab higher. As for the experimental part:
Figure 3 Negative-stain electron microscopy of Aβ1-40 fibrils incubated with gold-conjugated anti-Aβ antibodies. […] 100 images were collected for each sample. A representative image for each data set is shown. Scale bars are 100 nm. (e) Labeling densities were calculated as the number of fibril-associated gold particles (distance of ≤10 nm to fibril) per 1 μm^2 for each image, with mean ± SD for each group. The differences in the gold-labeled antibodies binding to Aβ fibrils were tested with a one-way ANOVA.
Aβ1-40 and Aβ1-42 peptides (AnaSpec) were dissolved in 5 M guanidine-HCl, 50 mM Tris-HCl, pH 8.0 at a concentration of 1 mg/mL. For growth of the Aβ1-40 fibrils, the solution was dialyzed (dialysis tubes, 1 kDa cutoff, GE Healthcare) against buffer (100 mM Na2HPO4, pH 8, 0.01% NaN3) for 4–6 h, then sonicated and agitated based on protocols described by Petkova and colleagues. […]
A 5-μL aliquot of Aβ1-40 or Aβ1-42 fibril sample (1 mg/mL) was adsorbed for 1 min on a glow-discharged carbon-coated copper grid. […] All quantifications were done using the Visiopharm image analysis software. Gold-conjugated anti-Aβ antibodies and Aβ1-40 or Aβ1-42 fibrils were detected with a customized algorithm. […] The data were subjected to a D’Agostino & Pearson normality test, and P-values were subsequently calculated using a Kruskal-Wallis one-way analysis of variance (ANOVA).

For data set [10], the system named is Aβ1-42 fibrils. The data set is described as above. The class given is binding. Conditions: fibril-associated gold particles per μm^2; 100 images; chaducanumab higher. How it is done:
Aβ1-40 and Aβ1-42 peptides (AnaSpec) were dissolved in 5 M guanidine-HCl, 50 mM Tris-HCl, pH 8.0 at a concentration of 1 mg/mL. For growth of the Aβ1-40 fibrils, the solution was dialyzed (dialysis tubes, 1 kDa cutoff, GE Healthcare) against buffer (100 mM Na2HPO4, pH 8, 0.01% NaN3) for 4–6 h, then sonicated and agitated based on protocols described by Petkova and colleagues. For Aβ1-42 fibrils, the dialysis buffer was supplemented with 100 mM NaCl and 100 μM ZnCl2 to decrease fibril polymorphism, as previously described. All Aβ fibrils were grown at 24 °C for 3 days. […]
A 5-μL aliquot of Aβ1-40 or Aβ1-42 fibril sample (1 mg/mL) was adsorbed for 1 min on a glow-discharged carbon-coated copper grid. […] All quantifications were done using the Visiopharm image analysis software. Gold-conjugated anti-Aβ antibodies and Aβ1-40 or Aβ1-42 fibrils were detected with a customized algorithm. […] The data were subjected to a D’Agostino & Pearson normality test, and P-values were subsequently calculated using a Kruskal-Wallis one-way analysis of variance (ANOVA). […]
100 images were collected for each sample. […] (e) Labeling densities were calculated as the number of fibril-associated gold particles per µm2 for each image with mean ± SD for each group, as described in Fig 3. Quantification of the number of gold particles that […]

Data set [11] has as its system soluble Aβ1-28. In words: SPR, soluble Aβ1-28 binding to surface-captured intact antibody. In general terms: Surface plasmon resonance follows binding to a sensor surface in real time, without labels.
Protocol: Analysis of A binding kinetics using surface plasmon resonance (SPR)
To identify if surface immobilization through C -terminal biotin affects the bi nding of antibodies targeting the N terminus, a separate experiment was performed, in which the binding of soluble Aβ1-28 to surface-captured antibody was measured (Fig. S1). This truncated form of A β was used to minimize aggregation and contains the full epitope for all antibodies tested (Table 1). Intact antibody was captured at 100 -600 RU on a CM5 chip prepared with mouse antibody capture reagent (GE Healthcare), and the binding response of Aβ1-28 was measured relative to a reference sensor with no anti -Aβ antibody. In this assay
Surface plasmon resonance analysis of A1-28 binding to anti-A antibodies immobilized on a muIgG -capture sensor chip surface.
corresponding fits to a 1:1 binding model (red curves).
up to 30 µM. Kinetics and affinity constants determined are listed in (e).
The subject of data set [12] is monomeric Aβ1-40. Conditions: read-out: mAb binding soluble Aβ1-40 (EC50); ELISA; monomeric biotinylated Aβ1-40 on captured antibody (5 μg/mL); average of two measurements.
Protocol: For preparation of monomeric Aβ peptides, the Aβ HFIP film was dissolved in dimethyl sulfoxide (DMSO) at a concentration of 1 mg/mL then diluted to the target concentration in assay buffers and used immediately.
To measure binding of soluble monomeric Aβ1-40 peptide to immobilized antibodies, plates were coated with 50 μL/well of 5 μg/mL AffiniPure goat anti-mouse IgG Fcγ fragment-specific antibody (Jackson ImmunoResearch) in Coating Buffer. […] Plates were incubated at room temperature for 1 h, washed 3 times with Wash Buffer, incubated with serially diluted monomeric biotin-conjugated Aβ1-40 (Aβ1-40-Lys-Biotin; AnaSpec) in Blocking Buffer at the indicated concentrations, and washed 3 times with Wash Buffer. Binding was detected using HRP-conjugated streptavidin (Thermo Fisher Scientific) followed by incubation with 1-Step TMB substrate.
Setting [13] is: Fab binding to Aβ1-40-biotin captured at 3–7 pg/mm^2, 1:1 binding model.

B1: BAN2401: anti-Aβ clinical candidate antibody, Ph2; mouse analog mAb158 (antibody, chains of the INN, looked up, V domains shown)
VH: EVQLVESGGGLVQPGGSLRLSCSASGFTFSSFGMHWVRQAPGKGLEWVAYISSGSSTIYYGDTVKGRFTISRDNAKNSLFLQMSSLRAEDTAVYYCAREGGYYYGRSYYTMDYWGQGTTVTVSS
VL: DVVMTQSPLSLPVTPGAPASISCRSSQSIVHSNGNTYLEWYLQKPGQSPKLLIYKVSNRFSGVPDRFSGSGSGTDFTLRISRVEAEDVGIYYCFQGSHVPPTFGPGTKLEIK
B1: the “Aβ selectivity (Monomer, Aggregate)” value in [1] is listed as “A ≫ M”.

B2: gantenerumab: anti-Aβ clinical candidate antibody, Ph3 (antibody, chains of the INN, looked up, V domains shown)
VH: QVELVESGGGLVQPGGSLRLSCAASGFTFSSYAMSWVRQAPGKGLEWVSAINASGTRTYYADSVKGRFTISRDNSKNTLYLQMNSLRAEDTAVYYCARGKGNTHKPYGYVRYFDVWGQGTLVTVSS
VL: DIVLTQSPATLSLSPGERATLSCRASQSVSSSYLAWYQQKPGQAPRLLIYGASSRATGVPARFSGSGSGTDFTLTISSLEPEDFATYYCLQIYNMPITFGQGTKVEIK
Take B2: the EC50 (usually the concentration at which the effect is half-maximal) in [2] was determined as 5.9 nM.

B3: ^chgantenerumab: murine chimeric IgG2a/kappa analog with the variable domains of gantenerumab (antibody, chains of the INN, looked up, V domains shown)
VH: QVELVESGGGLVQPGGSLRLSCAASGFTFSSYAMSWVRQAPGKGLEWVSAINASGTRTYYADSVKGRFTISRDNSKNTLYLQMNSLRAEDTAVYYCARGKGNTHKPYGYVRYFDVWGQGTLVTVSS
VL: DIVLTQSPATLSLSPGERATLSCRASQSVSSSYLAWYQQKPGQAPRLLIYGASSRATGVPARFSGSGSGTDFTLTISSLEPEDFATYYCLQIYNMPITFGQGTKVEIK
modifications: murine chimeric IgG2a/kappa
For the molecule B3, the concentration giving a half-maximal response (EC50) in data set [3] amounted to 0.3 nM; in data set [2], 5.9 nM; in data set [12], 300 nM. Further, the IC50 – broadly, the concentration at which inhibition is half-maximal – in [4] came to 330 nM. In data set [5] (setting [13]), the “Association rate, ka” value was determined as 660000 M⁻¹ s⁻¹. Further, the “Dissociation rate, kd” value in data set [5] (setting [13]) came to 0.015 s⁻¹. For the same molecule, the Kd in [5] (Fab binding to Aβ1-40-biotin, ^chaducanumab from steady state fit, read-out: Equilibrium affinity, KD) is 23 nM; in data set [6], 97 nM; in data set [11] (intact antibody captured at 100-600 RU on CM5 mouse antibody capture chip, 1:1 binding model, read-out: affinity of soluble Aβ1-28 for antibody) it was about 1000 nM. The “affinity for dimeric Aβ1-15 MAP” value in data set [7] is given as “sub-nanomolar”. Moreover, the “affinity for tetrameric Aβ1-15 MAP” value in data set [8] is on record as “sub-nanomolar”. Also, the “labeling density of ^chaducanumab compared to the named antibody” value in data set [9] came out at 3.6 fold. The “labeling density of chaducanumab compared to the named antibody” value in [10] was 3.1 fold. In addition, in data set [11] (comparison with Table 2), the “decrease in affinity using soluble Aβ versus immobilized Aβ1-40” value is over 50 fold. Moreover, the “decrease in association rate using soluble Aβ” value in data set [11] (comparison with immobilized Aβ1-40) was 20 fold.
